Measurements as given in publication PMC7954794, “Protein context shapes the specificity of SH3 domain-mediated interactions in vivo” (Nature Communications, 2021).

B1: S. cerevisiae Abp1 (full length; SH3 domain 535-592 mutated) / Hua2 (parent)
chain 1: MALEPIDYTTHSREIDAEYLKIVRGSDPDTTWLIISPNAKKEYEPESTGSSFHDFLQLFDETKVQYGLARVSPPGSDVEKIIIIGWCPDSAPLKTRASFAANFAAVANNLFKGYHVQVTARDEDDLDENELLMKISNAAGARYSIQTSSKQQGKASTPPVKKSFTPSKSPAPVSKKEPVKTPSPAPAAKISSRVNDNNDDDDWNEPELKERDFDQAPLKPNQSSYKPIGKIDLQKVIAEEKAKEDPRLVQKPTAAGSKIDPSSDIANLKNESKLKRDSEFNSFLGTTKPPSMTESSLKNDDDKVIKGFRNEKSPAQLWAERKAKQNSGNAETKAEAPKPEVPEDEPEGEPDVKDLKSKFEGLAASEKEEEEMENKFAPPPKKSEPTIISPKPFSKPQEPVKAEEAEQPKTDYKKIGNPLPGMHIEADNEEEPEENDDDWDDDEDEAAQPPLPSRNVASGAPVQKEEPEQEEIAPSLPSRNSIPAPKQEEAPEQAPEEEIEEEAEEAAPQLPSRSSAAPPPPPRRATPEKKPKENPWATAEYDYDAAEDNELTFVENDKIINIEFVDDDWWLGELEKDGSKGLFPSNYVSLGN
chain 2: MQQTKFGKMYLDHDSVVEYSEDEIVEADRITLGYKKRLSMIENQMRHLLEDFSLDVQQIEPILADLQKYYDAFLQLLQKRNKSLQCKRSTHQPVPSPMNSQTSTNAKVNLSGKLMKFQLNSVQKFDEENILRILQNKIEFEHYFQIDKGKKQKVLLLAVYQCLNGPTRLHKVLNIEGIIHNNSIRTILGKQVSSSKWTVFLYDVKLVLLAHRQDVPNLETSKMIVRYGDLFPCALYFKDHTAY

Variants of: B1
Assay: DHFR protein-fragment complementation in yeast (Abp1-DHFR F[1,2] x partner-DHFR F[3]), deep mutational scanning, second methotrexate selection vs reference
Settings: with Hua2; S. cerevisiae, DHFR-PCA selection in liquid with methotrexate at 30 C, two 72 h selections (the score uses the second); reference = the pre-selection culture; not an affinity; scale: DMS score: mean over two replicates of log2(f_test/f_ref + 0.5)/ln 2, minus the synonymous-codon median

Row | screen value | Variant
1 | -2.53 | chain 1 MALEPIDYTTHSREIDAEYLKIVRGSDPDTTWLIISPNAKKEYEPESTGSSFHDFLQLFDETKVQYGLARVSPPGSDVEKIIIIGWCPDSAPLKTRASFAANFAAVANNLFKGYHVQVTARDEDDLDENELLMKISNAAGARYSIQTSSKQQGKASTPPVKKSFTPSKSPAPVSKKEPVKTPSPAPAAKISSRVNDNNDDDDWNEPELKERDFDQAPLKPNQSSYKPIGKIDLQKVIAEEKAKEDPRLVQKPTAAGSKIDPSSDIANLKNESKLKRDSEFNSFLGTTKPPSMTESSLKNDDDKVIKGFRNEKSPAQLWAERKAKQNSGNAETKAEAPKPEVPEDEPEGEPDVKDLKSKFEGLAASEKEEEEMENKFAPPPKKSEPTIISPKPFSKPQEPVKAEEAEQPKTDYKKIGNPLPGMHIEADNEEEPEENDDDWDDDEDEAAQPPLPSRNVASGAPVQKEEPEQEEIAPSLPSRNSIPAPKQEEAPEQAPEEEIEEEAEEAAPQLPSRSSAAPPPPPRRATPEKKPKENPWATAEYDYDYAEDNELTFVENDKIINIEFVDDDWWLGELEKDGSKGLFPSNYVSLGN [chain 1 A545Y]
2 | -2.91 | chain 1 MALEPIDYTTHSREIDAEYLKIVRGSDPDTTWLIISPNAKKEYEPESTGSSFHDFLQLFDETKVQYGLARVSPPGSDVEKIIIIGWCPDSAPLKTRASFAANFAAVANNLFKGYHVQVTARDEDDLDENELLMKISNAAGARYSIQTSSKQQGKASTPPVKKSFTPSKSPAPVSKKEPVKTPSPAPAAKISSRVNDNNDDDDWNEPELKERDFDQAPLKPNQSSYKPIGKIDLQKVIAEEKAKEDPRLVQKPTAAGSKIDPSSDIANLKNESKLKRDSEFNSFLGTTKPPSMTESSLKNDDDKVIKGFRNEKSPAQLWAERKAKQNSGNAETKAEAPKPEVPEDEPEGEPDVKDLKSKFEGLAASEKEEEEMENKFAPPPKKSEPTIISPKPFSKPQEPVKAEEAEQPKTDYKKIGNPLPGMHIEADNEEEPEENDDDWDDDEDEAAQPPLPSRNVASGAPVQKEEPEQEEIAPSLPSRNSIPAPKQEEAPEQAPEEEIEEEAEEAAPQLPSRSSAAPPPPPRRATPEKKPKENPWATAEYDYDWAEDNELTFVENDKIINIEFVDDDWWLGELEKDGSKGLFPSNYVSLGN [chain 1 A545W]
3 | -1.96 | chain 1 MALEPIDYTTHSREIDAEYLKIVRGSDPDTTWLIISPNAKKEYEPESTGSSFHDFLQLFDETKVQYGLARVSPPGSDVEKIIIIGWCPDSAPLKTRASFAANFAAVANNLFKGYHVQVTARDEDDLDENELLMKISNAAGARYSIQTSSKQQGKASTPPVKKSFTPSKSPAPVSKKEPVKTPSPAPAAKISSRVNDNNDDDDWNEPELKERDFDQAPLKPNQSSYKPIGKIDLQKVIAEEKAKEDPRLVQKPTAAGSKIDPSSDIANLKNESKLKRDSEFNSFLGTTKPPSMTESSLKNDDDKVIKGFRNEKSPAQLWAERKAKQNSGNAETKAEAPKPEVPEDEPEGEPDVKDLKSKFEGLAASEKEEEEMENKFAPPPKKSEPTIISPKPFSKPQEPVKAEEAEQPKTDYKKIGNPLPGMHIEADNEEEPEENDDDWDDDEDEAAQPPLPSRNVASGAPVQKEEPEQEEIAPSLPSRNSIPAPKQEEAPEQAPEEEIEEEAEEAAPQLPSRSSAAPPPPPRRATPEKKPKENPWATAEYDYDVAEDNELTFVENDKIINIEFVDDDWWLGELEKDGSKGLFPSNYVSLGN [chain 1 A545V]

The next lines start with the variant.

Row | Variant | screen value
4 | chain 1 MALEPIDYTTHSREIDAEYLKIVRGSDPDTTWLIISPNAKKEYEPESTGSSFHDFLQLFDETKVQYGLARVSPPGSDVEKIIIIGWCPDSAPLKTRASFAANFAAVANNLFKGYHVQVTARDEDDLDENELLMKISNAAGARYSIQTSSKQQGKASTPPVKKSFTPSKSPAPVSKKEPVKTPSPAPAAKISSRVNDNNDDDDWNEPELKERDFDQAPLKPNQSSYKPIGKIDLQKVIAEEKAKEDPRLVQKPTAAGSKIDPSSDIANLKNESKLKRDSEFNSFLGTTKPPSMTESSLKNDDDKVIKGFRNEKSPAQLWAERKAKQNSGNAETKAEAPKPEVPEDEPEGEPDVKDLKSKFEGLAASEKEEEEMENKFAPPPKKSEPTIISPKPFSKPQEPVKAEEAEQPKTDYKKIGNPLPGMHIEADNEEEPEENDDDWDDDEDEAAQPPLPSRNVASGAPVQKEEPEQEEIAPSLPSRNSIPAPKQEEAPEQAPEEEIEEEAEEAAPQLPSRSSAAPPPPPRRATPEKKPKENPWATAEYDYDDAEDNELTFVENDKIINIEFVDDDWWLGELEKDGSKGLFPSNYVSLGN [chain 1 A545D] | -1.35
5 | chain 1 MALEPIDYTTHSREIDAEYLKIVRGSDPDTTWLIISPNAKKEYEPESTGSSFHDFLQLFDETKVQYGLARVSPPGSDVEKIIIIGWCPDSAPLKTRASFAANFAAVANNLFKGYHVQVTARDEDDLDENELLMKISNAAGARYSIQTSSKQQGKASTPPVKKSFTPSKSPAPVSKKEPVKTPSPAPAAKISSRVNDNNDDDDWNEPELKERDFDQAPLKPNQSSYKPIGKIDLQKVIAEEKAKEDPRLVQKPTAAGSKIDPSSDIANLKNESKLKRDSEFNSFLGTTKPPSMTESSLKNDDDKVIKGFRNEKSPAQLWAERKAKQNSGNAETKAEAPKPEVPEDEPEGEPDVKDLKSKFEGLAASEKEEEEMENKFAPPPKKSEPTIISPKPFSKPQEPVKAEEAEQPKTDYKKIGNPLPGMHIEADNEEEPEENDDDWDDDEDEAAQPPLPSRNVASGAPVQKEEPEQEEIAPSLPSRNSIPAPKQEEAPEQAPEEEIEEEAEEAAPQLPSRSSAAPPPPPRRATPEKKPKENPWATAEYDYDHAEDNELTFVENDKIINIEFVDDDWWLGELEKDGSKGLFPSNYVSLGN [chain 1 A545H] | -1.96
6 | chain 1 MALEPIDYTTHSREIDAEYLKIVRGSDPDTTWLIISPNAKKEYEPESTGSSFHDFLQLFDETKVQYGLARVSPPGSDVEKIIIIGWCPDSAPLKTRASFAANFAAVANNLFKGYHVQVTARDEDDLDENELLMKISNAAGARYSIQTSSKQQGKASTPPVKKSFTPSKSPAPVSKKEPVKTPSPAPAAKISSRVNDNNDDDDWNEPELKERDFDQAPLKPNQSSYKPIGKIDLQKVIAEEKAKEDPRLVQKPTAAGSKIDPSSDIANLKNESKLKRDSEFNSFLGTTKPPSMTESSLKNDDDKVIKGFRNEKSPAQLWAERKAKQNSGNAETKAEAPKPEVPEDEPEGEPDVKDLKSKFEGLAASEKEEEEMENKFAPPPKKSEPTIISPKPFSKPQEPVKAEEAEQPKTDYKKIGNPLPGMHIEADNEEEPEENDDDWDDDEDEAAQPPLPSRNVASGAPVQKEEPEQEEIAPSLPSRNSIPAPKQEEAPEQAPEEEIEEEAEEAAPQLPSRSSAAPPPPPRRATPEKKPKENPWATAEYDYDLAEDNELTFVENDKIINIEFVDDDWWLGELEKDGSKGLFPSNYVSLGN [chain 1 A545L] | -2.7
7 | chain 1 MALEPIDYTTHSREIDAEYLKIVRGSDPDTTWLIISPNAKKEYEPESTGSSFHDFLQLFDETKVQYGLARVSPPGSDVEKIIIIGWCPDSAPLKTRASFAANFAAVANNLFKGYHVQVTARDEDDLDENELLMKISNAAGARYSIQTSSKQQGKASTPPVKKSFTPSKSPAPVSKKEPVKTPSPAPAAKISSRVNDNNDDDDWNEPELKERDFDQAPLKPNQSSYKPIGKIDLQKVIAEEKAKEDPRLVQKPTAAGSKIDPSSDIANLKNESKLKRDSEFNSFLGTTKPPSMTESSLKNDDDKVIKGFRNEKSPAQLWAERKAKQNSGNAETKAEAPKPEVPEDEPEGEPDVKDLKSKFEGLAASEKEEEEMENKFAPPPKKSEPTIISPKPFSKPQEPVKAEEAEQPKTDYKKIGNPLPGMHIEADNEEEPEENDDDWDDDEDEAAQPPLPSRNVASGAPVQKEEPEQEEIAPSLPSRNSIPAPKQEEAPEQAPEEEIEEEAEEAAPQLPSRSSAAPPPPPRRATPEKKPKENPWATAEYDYDFAEDNELTFVENDKIINIEFVDDDWWLGELEKDGSKGLFPSNYVSLGN [chain 1 A545F] | -2.84
8 | chain 1 MALEPIDYTTHSREIDAEYLKIVRGSDPDTTWLIISPNAKKEYEPESTGSSFHDFLQLFDETKVQYGLARVSPPGSDVEKIIIIGWCPDSAPLKTRASFAANFAAVANNLFKGYHVQVTARDEDDLDENELLMKISNAAGARYSIQTSSKQQGKASTPPVKKSFTPSKSPAPVSKKEPVKTPSPAPAAKISSRVNDNNDDDDWNEPELKERDFDQAPLKPNQSSYKPIGKIDLQKVIAEEKAKEDPRLVQKPTAAGSKIDPSSDIANLKNESKLKRDSEFNSFLGTTKPPSMTESSLKNDDDKVIKGFRNEKSPAQLWAERKAKQNSGNAETKAEAPKPEVPEDEPEGEPDVKDLKSKFEGLAASEKEEEEMENKFAPPPKKSEPTIISPKPFSKPQEPVKAEEAEQPKTDYKKIGNPLPGMHIEADNEEEPEENDDDWDDDEDEAAQPPLPSRNVASGAPVQKEEPEQEEIAPSLPSRNSIPAPKQEEAPEQAPEEEIEEEAEEAAPQLPSRSSAAPPPPPRRATPEKKPKENPWATAEYDYDPAEDNELTFVENDKIINIEFVDDDWWLGELEKDGSKGLFPSNYVSLGN [chain 1 A545P] | -1.42
9 | chain 1 MALEPIDYTTHSREIDAEYLKIVRGSDPDTTWLIISPNAKKEYEPESTGSSFHDFLQLFDETKVQYGLARVSPPGSDVEKIIIIGWCPDSAPLKTRASFAANFAAVANNLFKGYHVQVTARDEDDLDENELLMKISNAAGARYSIQTSSKQQGKASTPPVKKSFTPSKSPAPVSKKEPVKTPSPAPAAKISSRVNDNNDDDDWNEPELKERDFDQAPLKPNQSSYKPIGKIDLQKVIAEEKAKEDPRLVQKPTAAGSKIDPSSDIANLKNESKLKRDSEFNSFLGTTKPPSMTESSLKNDDDKVIKGFRNEKSPAQLWAERKAKQNSGNAETKAEAPKPEVPEDEPEGEPDVKDLKSKFEGLAASEKEEEEMENKFAPPPKKSEPTIISPKPFSKPQEPVKAEEAEQPKTDYKKIGNPLPGMHIEADNEEEPEENDDDWDDDEDEAAQPPLPSRNVASGAPVQKEEPEQEEIAPSLPSRNSIPAPKQEEAPEQAPEEEIEEEAEEAAPQLPSRSSAAPPPPPRRATPEKKPKENPWATAEYDYDMAEDNELTFVENDKIINIEFVDDDWWLGELEKDGSKGLFPSNYVSLGN [chain 1 A545M] | -1.83
10 | chain 1 MALEPIDYTTHSREIDAEYLKIVRGSDPDTTWLIISPNAKKEYEPESTGSSFHDFLQLFDETKVQYGLARVSPPGSDVEKIIIIGWCPDSAPLKTRASFAANFAAVANNLFKGYHVQVTARDEDDLDENELLMKISNAAGARYSIQTSSKQQGKASTPPVKKSFTPSKSPAPVSKKEPVKTPSPAPAAKISSRVNDNNDDDDWNEPELKERDFDQAPLKPNQSSYKPIGKIDLQKVIAEEKAKEDPRLVQKPTAAGSKIDPSSDIANLKNESKLKRDSEFNSFLGTTKPPSMTESSLKNDDDKVIKGFRNEKSPAQLWAERKAKQNSGNAETKAEAPKPEVPEDEPEGEPDVKDLKSKFEGLAASEKEEEEMENKFAPPPKKSEPTIISPKPFSKPQEPVKAEEAEQPKTDYKKIGNPLPGMHIEADNEEEPEENDDDWDDDEDEAAQPPLPSRNVASGAPVQKEEPEQEEIAPSLPSRNSIPAPKQEEAPEQAPEEEIEEEAEEAAPQLPSRSSAAPPPPPRRATPEKKPKENPWATTEYDYDAAEDNELTFVENDKIINIEFVDDDWWLGELEKDGSKGLFPSNYVSLGN [chain 1 A539T] | -1.45
